Here are results for one molecule from PMC7807754, “A novel protein encoded by circular SMO RNA is essential for Hedgehog signaling activation and glioblastoma tumorigenicity” (Genome Biology, 2021).

The target in this experiment is T1, 6xHis-SMO (human, UniProt Q99835 28-787).
T1 construct: smoothened (SMO), human; The plasmid for the 6xHis-tagged protein is not described; source: 293T, transfected, purified (HisPur Ni-NTA Purification Kit)
Put plainly: co-IP; in vitro IP with proteins purified from 293T: GFP or GFP-193a.a. incubated with 6xHis-SMO for 4 h at 4 °C, immunoprecipitation overnight at 4 °C, protein A/G agarose, washed with PBST 5 times, western blotting. The note with it: both partners purified. On the technique in general: Immunoblotting shows a protein as a band on a membrane.

T1 sequence (Q99835 28-787): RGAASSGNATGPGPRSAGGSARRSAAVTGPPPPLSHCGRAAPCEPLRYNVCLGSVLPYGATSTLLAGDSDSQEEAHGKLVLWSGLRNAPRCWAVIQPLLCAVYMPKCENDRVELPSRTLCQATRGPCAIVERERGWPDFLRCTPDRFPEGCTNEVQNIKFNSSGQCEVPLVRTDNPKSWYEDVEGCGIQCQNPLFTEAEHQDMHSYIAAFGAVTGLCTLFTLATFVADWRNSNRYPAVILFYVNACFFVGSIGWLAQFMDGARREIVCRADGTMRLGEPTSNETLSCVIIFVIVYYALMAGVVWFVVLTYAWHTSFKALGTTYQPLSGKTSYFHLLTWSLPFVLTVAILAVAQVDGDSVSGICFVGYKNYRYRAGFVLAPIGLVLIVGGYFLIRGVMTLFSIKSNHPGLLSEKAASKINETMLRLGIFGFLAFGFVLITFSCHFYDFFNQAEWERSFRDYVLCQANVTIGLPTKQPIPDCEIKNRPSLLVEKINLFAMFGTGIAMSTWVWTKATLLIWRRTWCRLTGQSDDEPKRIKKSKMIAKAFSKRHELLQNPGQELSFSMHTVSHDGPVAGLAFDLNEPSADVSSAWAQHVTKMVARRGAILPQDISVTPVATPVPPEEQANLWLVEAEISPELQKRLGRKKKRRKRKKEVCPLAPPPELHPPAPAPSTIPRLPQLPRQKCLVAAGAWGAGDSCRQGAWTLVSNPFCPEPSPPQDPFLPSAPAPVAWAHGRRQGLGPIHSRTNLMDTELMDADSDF

B1: GFP-SMO-193a.a. (natural protein, human)
chain: MHSYIAAFGAVTGLCTLFTLATFVADWRNSNRYPAVILFYVNACFFVGSIGWLAQFMDGARREIVCRADGTMRLGEPTSNETLSCVIIFVIVYYALMAGVVWFVVLTYAWHTSFKALGTTYQPLSGKTSYFHLLTWSLPFVLTVAILAVAQVDGDSVSGICFVGYKNYRYRAGFVLAPIGLVLIVGGYFLIRE
notes: SMO (smoothened), human, amino acids 230-421; the open reading frame of circ-SMO; extra Glu at the C-terminal, not part of linear SMO; The plasmid for the GFP-tagged protein is not described; source: 293T, transfected, purified (anti-GFP antibody, Catch and Release v2.0 Reversible Immunoprecipitation System)
Consider B1, for which the binding result was “binds”.
